Measured values: PMC7946963, “Phosphorylation regulates the binding of autophagy receptors to FIP200 Claw domain for selective autophagy initiation” (Nature Communications, 2021)
Square brackets hold non-standard residues; d marks the D form. Ends that are not written are not given here. * marks the point of attachment. FITC = O=C1OC2(c3ccc(O)cc3Oc3cc(O)ccc32)c2ccc(NC(=S)*)cc21; pS = N[C@@H](COP(=O)(O)O)C(=O)O

B1: FIP200 Claw domain (residues 1490–1594) (domain or fragment, human, UniProt Q8TDY2 1490-1594, looked up)
chain: SRHSEKIAIRDFQVGDLVLIILDERHDNYVLFTVSPTLYFLHSESLPALDLKPGEGASGASRRPWVLGKVMEKEYCQAKKAQNRFKVPLGTKFYRVKAVSWNKKV
notes: 15N-labelled in the NMR titrations; also called RB1CC1; source: E. coli BL21 (DE3), purified (Ni-NTA, size-exclusion chromatography); not shown: Trx (inferred from the cleaved 3C protease site), N-terminal, cleaved; His6, N-terminal, cleaved
B9: nano-FIP200(1450–1594) (domain or fragment, human, UniProt Q8TDY2 1450-1594, looked up)
chain: HMLSEEKQRIMLLERTLQLKEEENKRLNQRLMSQSMSSVSSRHSEKIAIRDFQVGDLVLIILDERHDNYVLFTVSPTLYFLHSESLPALDLKPGEGASGASRRPWVLGKVMEKEYCQAKKAQNRFKVPLGTKFYRVKAVSWNKKV
notes: FIP200 (RB1CC1), human, residues 1450-1594; the construct of the analytical gel filtration with Optineurin fragments; also called FIP200 Claw domain; source: E. coli BL21 (DE3), purified (Ni-NTA, size-exclusion chromatography)

Experiments:
[1] = molecular target: the molecule itself; experiment: AUC; sedimentation velocity, 142,250 x g, 20 °C; FIP200(1490–1594) alone, CCPG1 FIR2 S104E alone, and FIP200(1490–1594) mixed with excess CCPG1 FIR2 S104E
[2] = molecular target: B1; experiment: fluorescence polarisation; FITC-labeled peptide (~0.25 μM) titrated with increasing amounts of protein; 20 mM Tris pH 7.9, 100 mM NaCl, 1 mM DTT, 25 °C; one-site binding model; conditions: both partners purified
GABARAP = molecular target: T1, GABARAP (UniProt O95166 1-117); experiment: as above; conditions: both partners purified
T1 construct: GABARAP, one of the six mammalian ATG8 family proteins; construct not described; also called ATG8 family protein; mammalian ATG8 orthologue; source: bacteria (15N-labelled form grown in M9 minimal medium); construct not described

nano-FIP200(1450–1594) = molecular target: B9; experiment: SEC; analytical gel filtration of purified proteins and their mixtures; Superose 200 increase 10/300 GL; 20 mM Tris-HCl pH 7.9, 100 mM NaCl, 1 mM DTT; conditions: both partners purified
[3] = molecular target: B1; experiment: AUC; sedimentation velocity, 142,250 x g, 20 °C; FIP200(1490–1594) alone, CCPG1 FIR2 S104E alone, and FIP200(1490–1594) mixed with excess CCPG1 FIR2 S104E; conditions: both partners purified
[4] = molecular target: T2, p-Optineurin(33–209), Optineurin(33–209) phosphorylated by TBK1 (human, UniProt Q96CV9 33-209, phosphoserine at 177 (the major site phosphorylated by TBK1, by mass spectrometry)); experiment: SEC; analytical gel filtration of purified proteins and their mixtures; Superose 200 increase 10/300 GL; 20 mM Tris-HCl pH 7.9, 100 mM NaCl, 1 mM DTT; conditions: both partners purified
T2 construct: S177 is called the major site; other phosphorylated sites are not excluded; source: E. coli BL21 (DE3), purified; phosphorylated in vitro by purified Trx-TBK1(1–674) from Sf9 cells
T2 sequence (Q96CV9 33-209): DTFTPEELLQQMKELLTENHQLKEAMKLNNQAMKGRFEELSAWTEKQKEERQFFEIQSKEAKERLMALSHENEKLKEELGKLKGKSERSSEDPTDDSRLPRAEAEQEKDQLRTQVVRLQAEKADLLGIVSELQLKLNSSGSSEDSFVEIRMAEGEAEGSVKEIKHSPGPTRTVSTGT

T1 sequence (O95166 whole entry): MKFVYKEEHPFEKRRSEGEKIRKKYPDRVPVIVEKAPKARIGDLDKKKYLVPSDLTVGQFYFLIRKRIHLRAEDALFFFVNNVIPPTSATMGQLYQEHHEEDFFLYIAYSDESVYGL

## B1
[1]
  stoichiometry N: 2

B2: S177-phosphorylated Optineurin LIR synthetic peptide (p-Optineurin LIR) (peptide)
peptide: SSED[pS]FVEIRMAE
modifications: also: N-terminal FITC in fluorescence polarisation assay only
notes: source: synthetic peptide, bought: ChinaPeptides (>98% pure)
[2]
  Kd: ~12 µM

B3: CCPG1 FIR2 synthetic peptide (residues 99–113) (peptide)
peptide: TASDDSDIVTLEPPK
modifications: also: FITC on N-terminus in fluorescence polarisation assay only
notes: The results speak of a 13-residue peptide; also called un-phosphorylated CCPG1 FIR2; wild-type CCPG1 FIR2; source: synthetic peptide, bought: ChinaPeptides (>98% pure)
[2]
  binding result: binds
GABARAP
  Kd: ~27 µM

B4: Optineurin(169–185) S177E (phosphomimetic mutant) (domain or fragment, human, UniProt Q96CV9 169-185, looked up)
chain: NSSGSSEDEFVEIRMAE
notes: also called S177E mutant of Optineurin LIR; source: E. coli BL21 (DE3), purified (Ni-NTA, size-exclusion chromatography)
nano-FIP200(1450–1594)
  binding result: binds

B5: Optineurin(169–185) S177E/F178W (domain or fragment, human, UniProt Q96CV9 169-185, looked up)
chain: NSSGSSEDEWVEIRMAE
notes: also called F178 of the S177E mutant of Optineurin LIR replaced by Trp; source: E. coli BL21 (DE3), purified (Ni-NTA, size-exclusion chromatography)
nano-FIP200(1450–1594)
  binding result: binds

B6: Optineurin(169–185) S177E/F178Y (domain or fragment, human, UniProt Q96CV9 169-185, looked up)
chain: NSSGSSEDEYVEIRMAE
notes: also called F178 of the S177E mutant of Optineurin LIR replaced by Tyr; source: E. coli BL21 (DE3), purified (Ni-NTA, size-exclusion chromatography)
nano-FIP200(1450–1594)
  binding result: binds

B7: Optineurin LIR synthetic peptide (un-phosphorylated) (peptide)
peptide: {FITC}-SSEDSFVEIRMAE
notes: Optineurin, human, LIR region; also called un-phosphorylated Optineurin LIR peptide; source: synthetic peptide, bought: ChinaPeptides (>98% pure)
[2]
  Kd: ~307 µM

B8: CCPG1 FIR2 S104E (phosphomimetic mutant, residues 99–113) (domain or fragment, human, UniProt Q9ULG6 99-113, looked up)
chain: TASDDEDIVTLEPPK
notes: CCPG1, human, FIR2, residues 99-113; also called phosphomimetic S104E mutant of CCPG1 FIR2; source: E. coli BL21 (DE3), purified (Ni-NTA, size-exclusion chromatography)
[3]
  stoichiometry N: 1 CCPG1 FIR2 S104E per FIP200 chain (2:2)

## B9
[4]
  binding result: binds
